# Source: the supplement of paper PMC9170038
# Test system: MS2 coat protein
# Experiment: apparent KD of MS2 coat protein; designed switch direction (-1 OFF switch, 1 ON switch): 1; higher = weaker reporter binding
# Procedure, shortened: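 On Illumina chips, designed RNA switches with common flanks were made by stalled E. coli RNA polymerase. Titrations with SNAP-549-labelled MS2 coat protein, doubling from 0.7 or 1.5 nM to 3 µM, were done with no input, with 200 uM small-molecule ligand, or with an oligonucleotide input. Apparent KD is the median per design over clusters, from curve fits of normalised cluster fluorescence.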
# [1] = input ligand: microRNA oligo, concentration not stated
# [2] = Eterna round: R95, input ligand: FMN 200 uM
# [3] = Eterna round: R95, input ligand: microRNA oligo, concentration not stated
# [4] = Eterna round: R95, input ligand: none
sequence,measurement,setting,value
"AUAAGUUUGAUGCUCGUCUCUUCGUACAGACAUGAGGAUCACCCAUGUAGUCGGGAAGUAGCCCGGCCAGUAUGACC [Usraisqu] (Eterna round: R96, puzzle: Sensor for hsa-mir-208a)",apparent KD of MS2 coat protein,input ligand: FMN 200 uM,0.285 µM
same,apparent KD of MS2 coat protein,[1],0.0382 µM
same,apparent KD of MS2 coat protein,input ligand: none,0.248 µM
AGUCCAGCCAGAGCUGGACAAAAGCAUGUACAUGAGGAUCACCCAUGUUCAUGUACAAGCUUUUUGCAAGUCAAAAG [Mat - hsa-mir-208a - Mod of JL - 74] (puzzle: Sensor for hsa-mir-208a),apparent KD of MS2 coat protein,[2],0.503 µM
same,apparent KD of MS2 coat protein,[3],0.0259 µM
same,apparent KD of MS2 coat protein,[4],0.78 µM
"UUGAAGAAUUAAGGAUAUUGAUUACAUAUGUUUAACAUGAGGAUCACCCAUGUGGGUUGCGGUAUCGAGAAGGUAAAUUACUAG [JL SSNG2 1.47] (Eterna round: R96, puzzle: Same State NG 2)",apparent KD of MS2 coat protein,input ligand: FMN 200 uM,0.137 µM
same,apparent KD of MS2 coat protein,[1],0.122 µM
same,apparent KD of MS2 coat protein,input ligand: none,0.162 µM
"GAGUGGUAAAGAGGAUAUGCAUUGUUAUUCACUGCAGAAGGUUUUAACAUGAGGAUCACCCAUGUAGGACUAUUCCUGUGUUUC [Parity 64 - Jieux - Same State NG 1] (Eterna round: R96, puzzle: Same State NG 1)",apparent KD of MS2 coat protein,[1],0.0103 µM
"AUACAUGAGGAUCACCCAUGUAAUUAAUUAACUAGUAAGAUCUAGGAUAUCAGCUCGAAUAGAGCUGAGAAGGAGAUCACAUGU [SSNG3/21-A1] (Eterna round: R96, puzzle: Same State NG 3)",apparent KD of MS2 coat protein,[1],0.0312 µM
"CGAGCCGGCACUGAGGAUAUUCAUAUUUAAACAUGAGGAUCACCCAUGUAGGCCAGAAGGCCUUGGGAGAAGGCAGGUCGGCUCC [salish99_ss2_r3_080] (Eterna round: R96, puzzle: Same State 2)",apparent KD of MS2 coat protein,input ligand: FMN 200 uM,0.0223 µM
same,apparent KD of MS2 coat protein,[1],0.22 µM
same,apparent KD of MS2 coat protein,input ligand: none,0.312 µM
AACGUUGGCGAGCAGGAUAUCCGCUCAUUAACAUGAGGAUCACCCAUGUUCUGCAAGAUGUGCUAGGAGAAGGGCUGGUCGACAU [Edatar] (puzzle: Same State 2),apparent KD of MS2 coat protein,[2],0.0149 µM
same,apparent KD of MS2 coat protein,[3],0.0182 µM
same,apparent KD of MS2 coat protein,[4],0.0348 µM
"CGUAGGAUAUGCAGAGGAUCACCCUGUAGAAGGACGAUUACACAGGAUAUGCAGAGGAUCACCCUGUAGAAGGGUGACUAAUCU [pwkr ssNG3 DX 2xF5 +2xFMN.3] (Eterna round: R96, puzzle: Same State NG 3)",apparent KD of MS2 coat protein,input ligand: FMN 200 uM,0.0258 µM
same,apparent KD of MS2 coat protein,[1],0.0344 µM
same,apparent KD of MS2 coat protein,input ligand: none,0.0557 µM
"GUGCUCGUGUAAGGAUAUGCAGCCGUUUCGGCUGCAGAAGGUACUAUAAUACAUGAGGAUCACCCAUGUCUCUAUUGUUUGGUG [salish99_SSNG1_r04_906] (Eterna round: R96, puzzle: Same State NG 1)",apparent KD of MS2 coat protein,[1],0.0763 µM
AGUCCAGCCUGAGCUGGACAAAAGCAUGUACAUGAGGAUCACCCAUGUUCAUGUACAAGCUUUUUGCUCGUCUUGAA [salish99_208a_r3_095x] (puzzle: Sensor for hsa-mir-208a),apparent KD of MS2 coat protein,[2],0.71 µM
same,apparent KD of MS2 coat protein,[3],0.0135 µM
same,apparent KD of MS2 coat protein,[4],0.817 µM
"UUAAUAAUGUAAGGAUAUACAUGAGGAUUUCUCGUAGAAGGUACAGGACAUGAGGAUCACCCAUGUAUCGCUCGAAAGAGCGUA [Mat - Same State NG 1 - JL mod - D25] (Eterna round: R96, puzzle: Same State NG 1)",apparent KD of MS2 coat protein,input ligand: FMN 200 uM,0.521 µM
same,apparent KD of MS2 coat protein,[1],0.217 µM
same,apparent KD of MS2 coat protein,input ligand: none,1.13 µM
"UGGCUCAGACGAGGAUAUAUGUCUCGAGCUUCGGCUCGAGACAUGAGGAUCACCCAUGUAAUAACAUAGAAGGUGUCUGAGCCA [SSNG2/1-C2] (Eterna round: R96, puzzle: Same State NG 2)",apparent KD of MS2 coat protein,input ligand: FMN 200 uM,0.0506 µM
same,apparent KD of MS2 coat protein,[1],0.24 µM
same,apparent KD of MS2 coat protein,input ligand: none,0.263 µM
GGCUAUCGCGUACGAUAGCUUAAGCGUGUACAUGAGGAUCACCCAUGUCAUGUACAAGCUUUUUGCUCGUCUUAUUG [JL-shm-2.34 JL mod] (puzzle: Sensor for hsa-mir-208a),apparent KD of MS2 coat protein,[2],0.195 µM
same,apparent KD of MS2 coat protein,[3],0.0194 µM
same,apparent KD of MS2 coat protein,[4],0.493 µM
"GCUGCAAUAAACGCCUACAUGAGGAUCACCCAUGUAUGUAGGCAGGAUAUCGUUUGCAAAGCAAACGAGAAGGGCCGUAGUAGC [Mat - Same State NG 3 - JL Mod - D35] (Eterna round: R96, puzzle: Same State NG 3)",apparent KD of MS2 coat protein,input ligand: FMN 200 uM,0.0263 µM
same,apparent KD of MS2 coat protein,[1],0.0446 µM
same,apparent KD of MS2 coat protein,input ligand: none,0.0661 µM
"ACAUGAGGAUCACCCAUGUAACACCUGAAAAUAAAACGAACACAGGAUAUCCCGGCAAGACACCGGGAGAAGGGUGAUCGAAGA [Eresorbe] (Eterna round: R96, puzzle: Same State NG 3)",apparent KD of MS2 coat protein,input ligand: FMN 200 uM,0.411 µM
same,apparent KD of MS2 coat protein,[1],0.0136 µM
same,apparent KD of MS2 coat protein,input ligand: none,0.0909 µM
"GGGAGAGACGGAGGAUAUGGAGGGAGAUAGAGACUAGAAGGUUGGACAUGAGAAUCGAACAUGAGGAUCACCCAUGUUGGGAGG [iteri-2] (Eterna round: R96, puzzle: Same State NG 1)",apparent KD of MS2 coat protein,input ligand: FMN 200 uM,0.0616 µM
same,apparent KD of MS2 coat protein,[1],0.0337 µM
same,apparent KD of MS2 coat protein,input ligand: none,0.0567 µM
"UGUUGUAUUACAGGAUAUCUAGAAUUUUUAUUUAGAGAAGGGUAUUCACAUGAGGAUCACCCAUGUAUAUACGAGGAAGUUGUG [JMF's solution 30] (Eterna round: R96, puzzle: Same State NG 1)",apparent KD of MS2 coat protein,[1],0.0279 µM
CAGUGCUGUCGAGAGGAUAUGCGGUGAUGGACAUGAGGAUCACCCAUGUUAGCGACAGCGUCACGGCAGAAGGCUCUACCCACUG [Soteed Omei mod 46] (puzzle: Same State 2),apparent KD of MS2 coat protein,[2],0.0117 µM
same,apparent KD of MS2 coat protein,[3],0.0153 µM
same,apparent KD of MS2 coat protein,[4],0.0182 µM
AGUCCUGAAAGGAAAAUUAUAAGUGAUGUACAUGAGGAUCACCCAUGUCAUGUACAAGUUCUAUGCUCGUCUUAUAA [Sensorship 25 - Jieux - Sensor for hsa-mir-208a] (puzzle: Sensor for hsa-mir-208a),apparent KD of MS2 coat protein,[2],0.222 µM
same,apparent KD of MS2 coat protein,[3],0.0341 µM
same,apparent KD of MS2 coat protein,[4],0.216 µM
"GGACGGUUAUCAGGAUAUGCGCUGAGCAUCACGGCUACAUGAGGAUCACCCAUGUCUAGCUUCUCGCAGAAGGGAUAGCCUCCU [Eternabot solution 36] (Eterna round: R96, puzzle: Same State NG 2)",apparent KD of MS2 coat protein,input ligand: FMN 200 uM,0.0112 µM
same,apparent KD of MS2 coat protein,[1],0.0101 µM
same,apparent KD of MS2 coat protein,input ligand: none,0.015 µM
"UUGAAGAAUUAAGGAUAUCGAGUCGUCAGAUUAAACAUGAGGAUCACCCAUGUGGGUUGCGGUAUCGAGAAGGUAAAUUACAAG [JL JR Sub099 mod 2] (Eterna round: R96, puzzle: Same State NG 2)",apparent KD of MS2 coat protein,input ligand: FMN 200 uM,0.0205 µM
same,apparent KD of MS2 coat protein,[1],0.0272 µM
same,apparent KD of MS2 coat protein,input ligand: none,0.0399 µM
"ACAUGAGAAAGAGGAUAUUUUGUACCUACAUGUGACAUGAGGAUCACCCAUGUGGUAAGUAUGAGAAAGAAGGCUUAGAUAUGU [Equivalence 13 - Jieux - Same State NG 2] (Eterna round: R96, puzzle: Same State NG 2)",apparent KD of MS2 coat protein,input ligand: FMN 200 uM,0.0206 µM
same,apparent KD of MS2 coat protein,[1],0.0431 µM
same,apparent KD of MS2 coat protein,input ligand: none,0.0617 µM
"UGGCUGGUGCUAGGAUAUCCAUGAGGAAUCCUCGUAGAAGGAGCACGACAUGAGGAUCACCCAUGUAGCCGUCCGUAGACGGCU [salish99_SSNG1_r04_008] (Eterna round: R96, puzzle: Same State NG 1)",apparent KD of MS2 coat protein,input ligand: FMN 200 uM,0.287 µM
same,apparent KD of MS2 coat protein,[1],0.185 µM
same,apparent KD of MS2 coat protein,input ligand: none,0.24 µM
"UGAAUAGUUACAGGAUAUGAGCCGUAAAUUGGGUCAGAAGGGUGGGUGUUCUGCGCGGUGUGUUACAUGAGGAUCACCCAUGUU [SameState NG1 #30] (Eterna round: R96, puzzle: Same State NG 1)",apparent KD of MS2 coat protein,input ligand: FMN 200 uM,0.245 µM
same,apparent KD of MS2 coat protein,[1],0.0998 µM
same,apparent KD of MS2 coat protein,input ligand: none,0.244 µM
"UGGCUCAGAGCAGGAUAUAUGCGAUCACAUGAGGAUCACCCAUGUCUCGAGCUUCGGCUCGAGGCAUAGAAGGGCUCUGAGCCA [SSNG2/4-B2] (Eterna round: R96, puzzle: Same State NG 2)",apparent KD of MS2 coat protein,input ligand: FMN 200 uM,0.0144 µM
same,apparent KD of MS2 coat protein,[1],0.0268 µM
same,apparent KD of MS2 coat protein,input ligand: none,0.0364 µM
GGUCCAGCCUGAGCUGGACAAAAGCAUGUACAUGAGGAUCACCCAUGUUCAUGUACAAGCUUUUUGCUCGUCUUAGA [salish99_208a_r3_068] (puzzle: Sensor for hsa-mir-208a),apparent KD of MS2 coat protein,[2],0.629 µM
same,apparent KD of MS2 coat protein,[3],0.0155 µM
same,apparent KD of MS2 coat protein,[4],0.747 µM
"AGCUAUUAAUCAGGAUAUGGUCACAUGAGGAUCACCCAUGUAUAGAUGAUUGAAUGUGGUCUAAACUAGAAGGGAUUGCUAACA [SameState NG2 #57] (Eterna round: R96, puzzle: Same State NG 2)",apparent KD of MS2 coat protein,input ligand: FMN 200 uM,0.971 µM
same,apparent KD of MS2 coat protein,[1],0.232 µM
same,apparent KD of MS2 coat protein,input ligand: none,0.745 µM
"GCGAGCGUACUUGCAACAUGAGGAUCACCCAUGUUAACUGGACAGGAUAUGGUACCGUUUCGGUACCAGAAGGGUUUUUCAUGG [JL SSNG3 3.64] (Eterna round: R96, puzzle: Same State NG 3)",apparent KD of MS2 coat protein,input ligand: FMN 200 uM,0.0856 µM
same,apparent KD of MS2 coat protein,[1],0.0506 µM
same,apparent KD of MS2 coat protein,input ligand: none,0.0743 µM
AGAAGACAUGAGGAUCACCCAUGUCCCUCAUGCGUAGGAUAUAUAAGAAGAAAGAAAAGGAUAGAAGGACGAAAAG [Default title] (puzzle: Same State 1),apparent KD of MS2 coat protein,[2],0.0975 µM
same,apparent KD of MS2 coat protein,[3],0.119 µM
same,apparent KD of MS2 coat protein,[4],0.194 µM
CAGCGCUGUCGAGAGGAUAUGCGGUGAUGGACAUGAGGAUCACCCAUGUUAGCGAUAGCAUUACGGUAGAAGGCUCUACAGCUGC [Soteed no mod] (puzzle: Same State 2),apparent KD of MS2 coat protein,[2],0.015 µM
same,apparent KD of MS2 coat protein,[3],0.0255 µM
same,apparent KD of MS2 coat protein,[4],0.0302 µM
AUAAGUUCGAUGCUCGUCUCUCCGUACAAACAUGAGGAUCACCCAUGUGAUCGGGAAGUAGCCCAAUCAGUAUGGCC [Oranlaen] (puzzle: Sensor for hsa-mir-208a),apparent KD of MS2 coat protein,[2],0.0266 µM
same,apparent KD of MS2 coat protein,[3],0.03 µM
same,apparent KD of MS2 coat protein,[4],0.0313 µM
